Results on 1 substance are retold here after patent publication US20080248026.

The test system of the data set is T1, purified murine β-catenin protein.
T1 sequence: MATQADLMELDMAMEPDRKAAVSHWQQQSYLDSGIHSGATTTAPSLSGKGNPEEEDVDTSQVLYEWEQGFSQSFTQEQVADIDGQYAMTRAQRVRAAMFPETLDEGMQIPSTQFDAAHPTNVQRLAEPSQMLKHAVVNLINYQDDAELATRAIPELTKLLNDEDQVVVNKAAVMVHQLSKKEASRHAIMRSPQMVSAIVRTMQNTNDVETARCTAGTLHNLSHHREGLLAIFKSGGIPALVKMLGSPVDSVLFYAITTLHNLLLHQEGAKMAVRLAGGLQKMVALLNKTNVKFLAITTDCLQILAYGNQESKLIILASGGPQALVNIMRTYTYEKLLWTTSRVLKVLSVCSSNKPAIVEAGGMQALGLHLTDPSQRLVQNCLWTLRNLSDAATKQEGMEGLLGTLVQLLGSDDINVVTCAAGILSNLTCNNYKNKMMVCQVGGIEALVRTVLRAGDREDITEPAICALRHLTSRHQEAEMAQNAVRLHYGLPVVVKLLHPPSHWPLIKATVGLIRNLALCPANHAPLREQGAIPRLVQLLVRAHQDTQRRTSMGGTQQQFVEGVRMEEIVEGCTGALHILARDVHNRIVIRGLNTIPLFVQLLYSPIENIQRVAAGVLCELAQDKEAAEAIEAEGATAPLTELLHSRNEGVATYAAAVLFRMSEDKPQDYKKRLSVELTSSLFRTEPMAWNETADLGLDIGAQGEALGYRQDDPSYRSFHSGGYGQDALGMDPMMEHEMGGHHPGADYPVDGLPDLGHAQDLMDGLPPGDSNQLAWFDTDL

As to Akt (Cell Signaling), the “in vitro phosphorylation; collision induced dissociation spectrum of the peptide spanning Ser^552 (loss of the 98 Da H3PO4 group)” value is recorded as “indicating that this peptide (shown in FIG. 5C) is phosphorylated by Akt”.
